Reference: publication PMC3506619, “NADP^+ Binding to the Regulatory Subunit of Methionine Adenosyltransferase II Increases Intersubunit Binding Affinity in the Hetero-Trimer” (PLoS ONE, 2012)

Target: methionine adenosyltransferase II regulatory β subunit, wild type (human MAT2B, V1 form) (human) (UniProt Q9NZL9)
Assay: AUC; sedimentation equilibrium of purified β (0.2-0.5 mg/ml), 293 K

- stoichiometry N: 2
Substance: methionine adenosyltransferase II regulatory β subunit, wild type (human MAT2B, V1 form) (from UniProt Q9NZL9 1-334) (natural protein)
